Drawing on patent JP2000169393A, this text covers HFE7AとWR19L12a細胞との結合の阻害(%) for 2 molecules.

For this test, the target named is 抗Fasモノクローナル抗体HFE7A(マウス−マウスハイブリドーマHFE7A、FERM BP−5828が産生). In words: 200 µg peptide pre-incubated with 0.25 µg HFE7A, then flow cytometry on WR19L12a cells; D355-364 control set to 100 % fluorescence. On the technique in general: Flow cytometry measures light scatter and fluorescence of single cells or particles in a stream.

As for EINCTRTQNT [合成ペプチドP100], the HFE7AとWR19L12a細胞との結合の阻害(%) was 50 %.

In the case of KCRCKPNFFC [合成ペプチドP110], the HFE7AとWR19L12a細胞との結合の阻害(%) was 60 %.
